Results reported in article PMC7367873, “Dissecting the sequence determinants for dephosphorylation by the catalytic subunits of phosphatases PP1 and PP2A” (Nature Communications, 2020).

B1: BST2 (protein, UniProt Q10589 1-161, looked up)
Bone marrow stromal antigen 2: MASTSYDYCRVPMEDGDKRCKLLLGIGILVLLIIVILGVPLIIFTIKANSEACRDGLRAVMECRNVTHLLQQELTEAQKGFQDVEAQAATCNHTVMALMASLDAEKAQGQKKVEELEGEITTLNHKLQDASAEVERLRRENQVLSVRIADKKYYPSSQDSS
B2: SLC1A5 (protein, UniProt Q15758 1-541, looked up)
Neutral amino acid …: MVADPPRDSKGLAAAEPTANGGLALASIEDQGAAAGGYCGSRDQVRRCLRANLLVLLTVVAVVAGVALGLGVSGAGGALALGPERLSAFVFPGELLLRLLRMIILPLVVCSLIGGAASLDPGALGRLGAWALLFFLVTTLLASALGVGLALALQPGAASAAINASVGAAGSAENAPSKEVLDSFLDLARNIFPSNLVSAAFRSYSTTYEERNITGTRVKVPVGQEVEGMNILGLVVFAIVFGVALRKLGPEGELLIRFFNSFNEATMVLVSWIMWYAPVGIMFLVAGKIVEMEDVGLLFARLGKYILCCLLGHAIHGLLVLPLIYFLFTRKNPYRFLWGIVTPLATAFGTSSSSATLPLMMKCVEENNGVAKHISRFILPIGATVNMDGAALFQCVAAVFIAQLSQQSLDFVKIITILVTATASSVGAAGIPAGGVLTLAIILEAVNLPVDHISLILAVDWLVDRSCTVLNVEGDALGAGLLQNYVDRTESRSTEPELIQVKSELPLDPLPVPTEEGNPLLKHYRGPAGDATVASEKESVM
B3: FARP1 (protein, UniProt Q9Y4F1 1-1045, looked up)
FERM, ARHGEF and pleckstrin …: MGEIEQRPTPGSRLGAPENSGISTLERGQKPPPTPSGKLVSIKIQMLDDTQEAFEVPQRAPGKVLLDAVCNHLNLVEGDYFGLEFPDHKKITVWLDLLKPIVKQIRRPKHVVVKFVVKFFPPDHTQLQEELTRYLFALQVKQDLAQGRLTCNDTSAALLISHIVQSEIGDFDEALDREHLAKNKYIPQQDALEDKIVEFHHNHIGQTPAESDFQLLEIARRLEMYGIRLHPAKDREGTKINLAVANTGILVFQGFTKINAFNWAKVRKLSFKRKRFLIKLRPDANSAYQDTLEFLMASRDFCKSFWKICVEHHAFFRLFEEPKPKPKPVLFSRGSSFRFSGRTQKQVLDYVKEGGHKKVQFERKHSKIHSIRSLASQPTELNSEVLEQSQQSTSLTFGEGAESPGGQSCRRGKEPKVSAGEPGSHPSPAPRRSPAGNKQADGAASAPTEEEEEVVKDRTQQSKPQPPQPSTGSLTGSPHLSELSVNSQGGVAPANVTLSPNLSPDTKQASPLISPLLNDQACPRTDDEDEGRRKRFPTDKAYFIAKEVSTTERTYLKDLEVITSWFQSTVSKEDAMPEALKSLIFPNFEPLHKFHTNFLKEIEQRLALWEGRSNAQIRDYQRIGDVMLKNIQGMKHLAAHLWKHSEALEALENGIKSSRRLENFCRDFELQKVCYLPLNTFLLRPLHRLMHYKQVLERLCKHHPPSHADFRDCRAALAEITEMVAQLHGTMIKMENFQKLHELKKDLIGIDNLVVPGREFIRLGSLSKLSGKGLQQRMFFLFNDVLLYTSRGLTASNQFKVHGQLPLYGMTIEESEDEWGVPHCLTLRGQRQSIIVAASSRSEMEKWVEDIQMAIDLAEKSSSPAPEFLASSPPDNKSPDEATAADQESEDDLSASRTSLERQAPHRGNTMVHVCWHRNTSVSMVDFSIAVENQLSGNLLRKFKNSNGWQKLWVVFTNFCLFFYKSHQDNHPLASLPLLGYSLTIPSESENIQKDYVFKLHFKSHVYYFRAESEYTFERWMEVIRSATSSASRPHVLSHKESLVY
B4: LIG3 (protein, UniProt P49916 43-1009, looked up)
DNA ligase 3: LLHGHPLFLRRKPVLSFQGSHLRSRATYLVFLPGLHVGLCSGPCEMAEQRFCVDYAKRGTAGCKKCKEKIVKGVCRIGKVVPNPFSESGGDMKEWYHIKCMFEKLERARATTKKIEDLTELEGWEELEDNEKEQITQHIADLSSKAAGTPKKKAVVQAKLTTTGQVTSPVKGASFVTSTNPRKFSGFSAKPNNSGEAPSSPTPKRSLSSSKCDPRHKDCLLREFRKLCAMVADNPSYNTKTQIIQDFLRKGSAGDGFHGDVYLTVKLLLPGVIKTVYNLNDKQIVKLFSRIFNCNPDDMARDLEQGDVSETIRVFFEQSKSFPPAAKSLLTIQEVDEFLLRLSKLTKEDEQQQALQDIASRCTANDLKCIIRLIKHDLKMNSGAKHVLDALDPNAYEAFKASRNLQDVVERVLHNAQEVEKEPGQRRALSVQASLMTPVQPMLAEACKSVEYAMKKCPNGMFSEIKYDGERVQVHKNGDHFSYFSRSLKPVLPHKVAHFKDYIPQAFPGGHSMILDSEVLLIDNKTGKPLPFGTLGVHKKAAFQDANVCLFVFDCIYFNDVSLMDRPLCERRKFLHDNMVEIPNRIMFSEMKRVTKALDLADMITRVIQEGLEGLVLKDVKGTYEPGKRHWLKVKKDYLNEGAMADTADLVVLGAFYGQGSKGGMMSIFLMGCYDPGSQKWCTVTKCAGGHDDATLARLQNELDMVKISKDPSKIPSWLKVNKIYYPDFIVPDPKKAAVWEITGAEFSKSEAHTADGISIRFPRCTRIRDDKDWKSATNLPQLKELYQLSKEKADFTVVAGDEGSSTTGGSSEENKGPSGSAVSRKAPSKPSASTKKAEGKLSNSNSKDGNMQTAKPSAMKVGEKLATKSSPVKVGEKRKAADETLCQTKVLLDIFTGVRLYLPPSTPDFSRLRRYFVAFDGDLVQEFDMTSATHVLGSRDKNPAAQQVSPEWIWACIRKRRLVAPC
B5: PATL1 (protein, UniProt Q86TB9 1-770, looked up)
Protein PAT1 homolog 1: MFRYESLEDCPLDEDEDAFQGLGEEDEEIDQFNDDTFGSGAVDDDWQEAHERLAELEEKLPVAVNEQTGNGERDEMDLLGDHEENLAERLSKMVIENELEDPAIMRAVQTRPVLQPQPGSLNSSIWDGSEVLRRIRGPLLAQEMPTVSVLEYALPQRPPQGPEDDRDLSERALPRRSTSPIIGSPPVRAVPIGTPPKQMAVPSFTQQILCPKPVHVRPPMPPRYPAPYGERMSPNQLCSVPNSSLLGHPFPPSVPPVLSPLQRAQLLGGAQLQPGRMSPSQFARVPGFVGSPLAAMNPKLLQGRVGQMLPPAPGFRAFFSAPPSATPPPQQHPPGPGPHLQNLRSQAPMFRPDTTHLHPQHRRLLHQRQQQNRSQHRNLNGAGDRGSHRSSHQDHLRKDPYANLMLQREKDWVSKIQMMQLQSTDPYLDDFYYQNYFEKLEKLSAAEEIQGDGPKKERTKLITPQVAKLEHAYKPVQFEGSLGKLTVSSVNNPRKMIDAVVTSRSEDDETKEKQVRDKRRKTLVIIEKTYSLLLDVEDYERRYLLSLEEERPALMDDRKHKICSMYDNLRGKLPGQERPSDDHFVQIMCIRKGKRMVARILPFLSTEQAADILMTTARNLPFLIKKDAQDEVLPCLLSPFSLLLYHLPSVSITSLLRQLMNLPQSAATPALSNPHLTAVLQNKFGLSLLLILLSRGEDLQSSDPATESTQNNQWTEVMFMATRELLRIPQAALAKPISIPTNLVSLFSRYVDRQKLNLLETKLQLVQGIR
B6: TUBB6 (protein, UniProt Q9BUF5 1-446, looked up)
Tubulin beta-6 chain: MREIVHIQAGQCGNQIGTKFWEVISDEHGIDPAGGYVGDSALQLERINVYYNESSSQKYVPRAALVDLEPGTMDSVRSGPFGQLFRPDNFIFGQTGAGNNWAKGHYTEGAELVDAVLDVVRKECEHCDCLQGFQLTHSLGGGTGSGMGTLLISKIREEFPDRIMNTFSVMPSPKVSDTVVEPYNATLSVHQLVENTDETYCIDNEALYDICFRTLKLTTPTYGDLNHLVSATMSGVTTSLRFPGQLNADLRKLAVNMVPFPRLHFFMPGFAPLTSRGSQQYRALTVPELTQQMFDARNMMAACDPRHGRYLTVATVFRGPMSMKEVDEQMLAIQSKNSSYFVEWIPNNVKVAVCDIPPRGLKMASTFIGNSTAIQELFKRISEQFSAMFRRKAFLHWFTGEGMDEMEFTEAESNMNDLVSEYQQYQDATANDGEEAFEDEEEEIDG
B7: MYBBP1A (protein, UniProt Q9BQG0 1-1328, looked up)
Myb-binding protein 1A: MESRDPAQPMSPGEATQSGARPADRYGLLKHSREFLDFFWDIAKPEQETRLAATEKLLEYLRGRPKGSEMKYALKRLITGLGVGRETARPCYSLALAQLLQSFEDLPLCSILQQIQEKYDLHQVKKAMLRPALFANLFGVLALFQSGRLVKDQEALMKSVKLLQALAQYQNHLQEQPRKALVDILSEVSKATLQEILPEVLKADLNIILSSPEQLELFLLAQQKVPSKLKKLVGSVNLFSDENVPRLVNVLKMAASSVKKDRKLPAIALDLLRLALKEDKFPRFWKEVVEQGLLKMQFWPASYLCFRLLGAALPLLTKEQLHLVMQGDVIRHYGEHVCTAKLPKQFKFAPEMDDYVGTFLEGCQDDPERQLAVLVAFSSVTNQGLPVTPTFWRVVRFLSPPALQGYVAWLRAMFLQPDLDSLVDFSTNNQKKAQDSSLHMPERAVFRLRKWIIFRLVSIVDSLHLEMEEALTEQVARFCLFHSFFVTKKPTSQIPETKHPFSFPLENQAREAVSSAFFSLLQTLSTQFKQAPGQTQGGQPWTYHLVQFADLLLNHSHNVTTVTPFTAQQRQAWDRMLQTLKELEAHSAEARAAAFQHLLLLVGIHLLKSPAESCDLLGDIQTCIRKSLGEKPRRSRTKTIDPQEPPWVEVLVEILLALLAQPSHLMRQVARSVFGHICSHLTPRALQLILDVLNPETSEDENDRVVVTDDSDERRLKGAEDKSEEGEDNRSSESEEESEGEESEEEERDGDVDQGFREQLMTVLQAGKALGGEDSENEEELGDEAMMALDQSLASLFAEQKLRIQARRDEKNKLQKEKALRRDFQIRVLDLVEVLVTKQPENALVLELLEPLLSIIRRSLRSSSSKQEQDLLHKTARIFTHHLCRARRYCHDLGERAGALHAQVERLVQQAGRQPDSPTALYHFNASLYLLRVLKGNTAEGCVHETQEKQKAGTDPSHMPTGPQAASCLDLNLVTRVYSTALSSFLTKRNSPLTVPMFLSLFSRHPVLCQSLLPILVQHITGPVRPRHQACLLLQKTLSMREVRSCFEDPEWKQLMGQVLAKVTENLRVLGEAQTKAQHQQALSSLELLNVLFRTCKHEKLTLDLTVLLGVLQGQQQSLQQGAHSTGSSRLHDLYWQAMKTLGVQRPKLEKKDAKEIPSATQSPISKKRKKKGFLPETKKRKKRKSEDGTPAEDGTPAATGGSQPPSMGRKKRNRTKAKVPAQANGTPTTKSPAPGAPTRSPSTPAKSPKLQKKNQKPSQVNGAPGSPTEPAGQKQHQKALPKKGVLGKSPLSALARKKARLSLVIRSPSLLQSGAKKKAQVRKAGKP
B8: SNRPA1 (protein, UniProt P09661 2-255, looked up)
U2 small nuclear …: VKLTAELIEQAAQYTNAVRDRELDLRGYKIPVIENLGATLDQFDAIDFSDNEIRKLDGFPLLRRLKTLLVNNNRICRIGEGLDQALPCLTELILTNNSLVELGDLDPLASLKSLTYLSILRNPVTNKKHYRLYVIYKVPQVRVLDFQKVKLKERQEAEKMFKGKRGAQLAKDIARRSKTFNPGAGLPTDKKKGGPSPGDVEAIKNAIANASTLAEVERLKGLLQSGQIPGRERRSGPTDDGEEEMEEDTVTNGS

system: GFP-14-3-3β and its binding proteins; test: GFP-14-3-3β co-IP with LC-MS/MS label-free quantification, untreated versus PP1c-treated; set-up: species or system human; conditions: log2 difference; pairwise comparison PP1 vs untreated, label-free quantification, 3 replicates each

Molecule	Difference (log2), PP1 vs untreated
B1	1.808

same assay, conditions: pairwise comparison PP1 vs untreated

Molecule	Difference (log2), PP1 vs untreated [log2]
B2	-0.02668
B3	-0.03585
B4	-0.06583
B5	-0.05274
B6	-0.03516
B7	-0.04518
B8	-0.04086

system: GFP-14-3-3β; test: GFP-14-3-3β co-IP with LC-MS/MS, untreated GFP-14-3-3β versus GFP control (14-3-3 interactome); type: binding, human; conditions: log2 difference; pairwise comparison untreated vs GFP, label-free quantification, 3 replicates each

Molecule	Difference (log2), untreated vs GFP
B1	-3.2427

same assay, conditions: pairwise comparison untreated vs GFP

Molecule	Difference (log2), untreated vs GFP [log2]
B2	0.7589
B3	0.5364
B4	-0.6994
B5	-0.4586
B6	-0.8713
B7	2.289
B8	0.8199
